{"source": "paper PMC10515009", "about": "“A regulatory GhBPE-GhPRGL module maintains ray petal length in Gerbera hybrida”", "target": "T1, GST-N-GhBPE (Gerbera hybrida)", "T1 chain": "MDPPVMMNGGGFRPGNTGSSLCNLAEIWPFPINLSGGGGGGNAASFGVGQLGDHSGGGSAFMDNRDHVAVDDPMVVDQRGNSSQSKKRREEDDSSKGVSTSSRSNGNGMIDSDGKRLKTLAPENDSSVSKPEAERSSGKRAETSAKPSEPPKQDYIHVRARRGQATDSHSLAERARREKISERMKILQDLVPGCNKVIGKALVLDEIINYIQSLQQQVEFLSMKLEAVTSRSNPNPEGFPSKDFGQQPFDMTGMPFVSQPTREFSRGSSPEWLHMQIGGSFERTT", "test": "EMSA; LightShift Chemiluminescent EMSA kit; buffer, salt, pH and temperature not stated (as Han et al. 2017)", "settings": "protein: recombinant; vector pET32-GST; label: 5' biotin (Methods); blunt"}
{"binder": "MUT-probe2 (both JA response elements mutated) (dsDNA) DNA 1: AACACATAAAAAAATCTGTGGTTTTATTGGTTTGTTATTTATCAGATACATTTTAAATATTTAATCGATAATCAAATTTTTTATTAAACACCCACCCCCA DNA 2: TGGGGGTGGGTGTTTAATAAAAAATTTGATTATCGATTAAATATTTAAAATGTATCTGATAAATAACAAACCAATAAAACCACAGATTTTTTTATGTGTT", "values": [{"measurement": "binding result", "result": "no binding"}]}
